Results published in the supplement of paper PMC12042874.
± gives the uncertainty stated by the source.

assay: amyloid nucleation score (Sup35N fusion, yeast selection) (log enrichment); library NNK2; higher = more nucleation; inactive = no reads after selection
Procedure, shortened: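 The nucleation score is the DiMSum log enrichment of output over input reads, centred on the mode score of non-aggregating sequences. Only sequences with 100 or more input reads were scored, using Illumina sequencing of input and output plasmid inserts. Psi-negative yeast expressing Sup35N fused to peptides of 20 random codons were induced 24 hours with 100 μM copper sulfate and grown 7 days at 30°C on medium lacking adenine and uracil.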

Substance	amyloid nucleation score
VEFLPCLSIYSACFSLDGST	-1.37 ± 0.44
NFVRRSKSDKPCCYKTHSST	-0.747 ± 0.41
PELSNDQGYFVDSVKSGKVE	-0.036 ± 0.48
YLLHNSLKFRVHHSL	-0.68 ± 0.39
SGPVVQDKVYHRVNYF	-0.369 ± 1.1
YPMNSVPDI	-0.858 ± 0.48
WGCWTVRSTT	0.92 ± 0.46
IVTINGNN	-0.51 ± 0.44
MLVNRFGGVA	-0.402 ± 0.38
SPCLVLL	0.2 ± 0.28
HLCHLLRSEHCRNGGSEKSR	1.61 ± 0.29
KHYAL	0.169 ± 0.8
IGKGRFNVYCMN	-0.64 ± 0.79
TWQTLYASSVFFANPVEHPL	0.068 ± 0.29
LCWFAMLEYVWDGHAVGDSI	4.06 ± 0.061
LGHASSFCAYCRFDSM	4.16 ± 0.068
CGMNGKTEGEWMGYRKDEGE	6.03 ± 0.077
GFVLILTAIYVVGCINICAM	5.66 ± 0.064
ILVLW	-0.022 ± 0.46
VNYVDGWV	1.45 ± 0.34
RDNFLNEY	-0.953 ± 0.36
SATARKNILVSLGSVALFDR	-0.82 ± 0.54
PQSWCFFPNFDKGLVLVRRQ	0.801 ± 0.82
CAINPKVKRSFLVI	-1.73 ± 1.1
SRAKNLHSFKSNMCDAFSYN	inactive

Substance	amyloid nucleation score
VNIVSIVYKGDNN	7.72 ± 0.075
YYWASRLVMPCSNRWRLYLQ	-0.474 ± 1
NSYTFLNT	inactive
MLARFSSHVPGTDVNPIGRQ	0.317 ± 0.5
TCGRYSYSWVFSESKS	inactive
FTESCQCS	-0.08 ± 0.31
RLRGFIPLCTYIFPNFRGLL	-0.718 ± 0.65
RYAQGRRWSYRLNRCLVGRC	1.81 ± 0.27
RDSQWGLSRKDFSHACVLTY	-0.408 ± 0.48
SVIHREIELVFILI	4.4 ± 0.087
RCLVREISNPDGSDSIIWLR	-0.574 ± 0.55
TKEFGECFIQMIMYNGRDIL	1.88 ± 0.1
VDIFMFKAAHIRAKGNVVGL	-0.429 ± 0.45
FSLQCPFSERKIYRRLCSPS	inactive
STPHFH	-0.146 ± 1
KRILQMDHRLLNHNSELLKR	-0.397 ± 0.45
LIEVQGSFYIVSALIGYRCG	0.414 ± 0.21
WVVNRTQGYGRLSSGDEEVP	1.35 ± 0.37
GICKALARYYFSIYDWQVTE	0.049 ± 1.1
YLKPLAFITSILHAMTRPWH	-1.28 ± 0.75
MHQSQVMSLSDPAAGKSFWV	-0.56 ± 0.79
SFVLSSHKA	0.175 ± 0.61
GMVNIYDLCYMLLY	-1.21 ± 0.31
DRHYCQKGEWRKDEDVFPVE	0.13 ± 1.1
TVYSHEKGVQLWFLLIVALL	0.27 ± 0.48

Substance	amyloid nucleation score
CVVRSSAKRFDCRKFGRASN	0.599 ± 0.8
KTNVMERCHFQRILCFGMW	inactive
TVGIAKKNMVR	0.503 ± 0.43
KYWFDGYLGYF	-1.14 ± 0.29
SSFFPRQ	-0.767 ± 0.76
WCTIHYDLMLVVRTNSSRSI	1.08 ± 0.18
KTAVSNVRCMY	-0.227 ± 0.62
SAIDWDFQTIFLLSEFQYGF	-1.44 ± 1.1
LFEFSFITPYGV	-0.531 ± 0.44
LIHLNNAMIEHCMFEVRSFG	-0.016 ± 0.26
FKRRCVDYNFSVVILLH	-2.03 ± 0.76
LRAWLSSLAHTKRRCELGTP	0.575 ± 0.3
VLLSITSRRVMPTSKI	0.594 ± 0.81
SAPYLIMLRLDSCACGDVF	2.01 ± 0.083
LTSMRRCPGVYVGNCGVAGR	1 ± 0.35
HLGHKKVRWDMSAELWQ	2.75 ± 0.1
LHLFIVGRKWSGDESAFLYA	0.154 ± 0.5
YTNSQYSPLPQQSNLKVSNI	-0.716 ± 0.56
ITYPVESLYNAWSGGPVTDG	0.164 ± 0.8
IPLVKCRSCRRCNN	0.412 ± 0.5
CWFHGLWIRGVDNSSVYWMD	-0.466 ± 0.65
SFNVF	-0.094 ± 0.6
SYVGVSNGRVVWVRVMANSK	inactive
HHIGGMIS	-0.09 ± 0.3
CCAGWYSGEEGRMGSRL	0.511 ± 0.18

Substance	amyloid nucleation score
VYDQIYGRLANRLVHNKWRR	-0.341 ± 0.55
SCSIKSSTVVEDPF	0.049 ± 0.76
THMYCIMVYRRYSGSVGLGY	0.127 ± 0.77
CWFMYPSMIDWWSMTSRECF	-0.129 ± 0.18
HAYFFLRDRVRCSIFVIVTT	-0.453 ± 0.78
IFWAYAICCIYGLRGCRGEY	6.64 ± 0.084
QWLKTVSLS	0.449 ± 0.8
KTYGGLLSLPVVLRMLEPRA	0.319 ± 0.61
HYVYFGYECAFGGG	-0.365 ± 0.76
AMERDYFLTVTCDRVKYLGE	1.01 ± 0.4
RVSTNGFVSQPMRWYVIVDS	-0.142 ± 0.25
DCNVWSSSERKVLSRGTSDF	-0.193 ± 0.31
TLSVGVQL	-0.624 ± 0.63
FVQSVGNMVSNSGRAGGMPG	0.444 ± 0.31
SFKSDSFTDYYLIDLAITRG	-0.046 ± 1
SIYRFDLTYPNRHHCYNVVI	-0.184 ± 1.1
SGDMCFWFSQTRHGLFKGIL	-0.019 ± 0.37
SVIRMLYD	-0.113 ± 0.45
NRQRRPRLVDKYGASRGVVY	3.31 ± 0.11
PCCQEACDGCEGNRDLPGEA	1.65 ± 0.32
FYMYAFNYYSFY	2.91 ± 0.086
NRDTM	-1.13 ± 0.37
QLKSFR	inactive
PDFFCRSVVNQKMYLKTLHY	-1.03 ± 1.1
TGLVMVHSTRVPKRLGMLCL	0.967 ± 0.33

Substance	amyloid nucleation score
ILSLEDLSLVRYGAIDS	-0.483 ± 1.1
GSSAYITLLHYEILNLRLLC	4.12 ± 0.079
SKAECLMH	-0.547 ± 1.1
WDQCLMLMCPNE	-0.291 ± 0.64
QVLVWQHMGRSTVLMLY	-0.58 ± 0.55
LWSEGMTLASADCR	0.721 ± 0.22
SLKEESFESVMNVG	3.87 ± 0.059
PKRLKSSYLD	-0.208 ± 0.37
AGEQEVDGPVIQRWSGFTTR	2.2 ± 0.21
MSGVSAVLRDLFKYVELIIR	inactive
GWSSSGVVIRVPGSFRLVGR	1.39 ± 0.45
PLCLSDNYMTIQSSSILNAH	-0.205 ± 0.41
LFEMC	0.443 ± 0.26
SVKCWVALAPYLGDRKDPVW	2.94 ± 0.15
VDVPMNMIRWSQCNQ	1.22 ± 0.59
WHMLHRVDKAISFSLSCCGR	7.81 ± 0.084
ETVLFYSV	inactive
FYSELKLNGMH	-2.04 ± 0.62
CFFLYIRHFAMYCA	1.65 ± 0.17
VTLQPFCSARSWLEMNVKFF	4.44 ± 0.066
CGRWVSGAWDGCGCGLGVLG	-0.305 ± 0.55
EKRMNLVHYREYLPPFKRSN	-0.403 ± 1
MNKNYFSGLPGGSVCYSVEY	-0.732 ± 0.38
GIMGDGGGHALWTEEELKVR	1.01 ± 0.23
GTLPYFKN	-0.641 ± 0.74

Substance	amyloid nucleation score
WTFLIIIWYLDIVV	-1.76 ± 0.48
PSQAGKIMVLKNTRWNHRDC	1.01 ± 0.52
TWRLKVVGQRQTFSKFTGLG	-0.133 ± 0.35
AILGLYVYMGSWHKGVSGVI	inactive
KRRSLGLLISLVTMGDK	0.917 ± 0.31
LCYWCTCR	0.141 ± 0.41
SCPNYTVSIWIYMPFFSWLR	2.81 ± 0.08
AHAPGPNEA	0.276 ± 0.8
LWSLLLWLPTYRYRLYLFGA	-0.113 ± 0.79
NSRSLTDTHDCMVTGWATRH	-0.159 ± 0.45
FMWVNS	inactive
SRYLSVIYYHRSNTWLRDRE	inactive
ELCPAT	0.219 ± 0.3
NLCTVVCSDTAVLWTALPRL	9.478 ± 0.062
IFSLP	-0.464 ± 0.5
NRHWRFG	2.7 ± 0.11
YHKRSPIYSVLYDLDSFK	-1.04 ± 1.1
RVRSSLVDLASVGSILLTAR	-0.264 ± 0.41
FCHCFRGYARDHHRMTQLGN	-0.674 ± 0.76
RFTALADGYRFTLSLGIVSG	2.28 ± 0.12
VSSVVLCIIIRDGSMMFYYK	inactive
FIELMCWRSH	-0.315 ± 0.45
VVIRCFYGTERNASWLLVCL	-0.059 ± 0.24
FHCNPIS	-0.277 ± 1.1
RGNMTLIETALAIVQSFSNH	9.064 ± 0.035

Substance	amyloid nucleation score
WGDRLSVKFMCVDALGRVNL	0.019 ± 0.56
TMVMTVQPPLHLFCLDLMHD	2.24 ± 0.12
LYLRRWSPGLVMIQYPIILW	0.545 ± 0.42
SDCGHAEVVCAGNHGGTSYP	0.326 ± 0.27
VRWTRILVLIMFYAMSSTGT	2.65 ± 0.073
QIASYDFCHRVGRMGPTVCV	-0.165 ± 0.54
GMNRL	-0.869 ± 0.55
DGTYLQNRRDFNNGSARRGW	0.984 ± 0.57
NRTSYQNLIDNATTVSIMF	1.55 ± 0.22
VMCFEYYVYYDYDYTCTFNY	0.842 ± 0.12
SRFLLKDKSNTSGVMQLGMW	-0.374 ± 0.41
SESDSTLRSTIDSRLCGS	-0.53 ± 0.55
KDGLTISRIQITLIKRTLVV	0.035 ± 0.74
RGSRVLSFILLRISNWIFQD	-0.239 ± 0.76
IVQFYYVMQYRFRYCLDRMH	1.01 ± 0.34
QWRFGRG	1.16 ± 0.26
FRFANRVTIKSFLGV	inactive
GETVHREYLAGWMALSSRRR	2.47 ± 0.094
AIIPRMLKYRERGKPTKRDT	0.291 ± 0.24
HGDVIRCRTKIIIAVFGMFM	6.21 ± 0.076
SGHISYG	0.192 ± 0.56
QHYLKPAMARQSLKGIFDQD	-0.595 ± 0.61
SGTALTRAESSTLMFNRNYR	0.106 ± 0.41
